The target of one test is T1, ScpA_(S512A) (Streptococcus pyogenes, UniProt P15926 31-1032, S512A).
T1 construct: Plasmid pGEX ScpA(31-1032) was the template; also called C5a peptidase from Streptococcus pyogenes, active site serine to alanine mutant; source: details in Supplemental Information SI1 and SI2
T1 sequence (looked up): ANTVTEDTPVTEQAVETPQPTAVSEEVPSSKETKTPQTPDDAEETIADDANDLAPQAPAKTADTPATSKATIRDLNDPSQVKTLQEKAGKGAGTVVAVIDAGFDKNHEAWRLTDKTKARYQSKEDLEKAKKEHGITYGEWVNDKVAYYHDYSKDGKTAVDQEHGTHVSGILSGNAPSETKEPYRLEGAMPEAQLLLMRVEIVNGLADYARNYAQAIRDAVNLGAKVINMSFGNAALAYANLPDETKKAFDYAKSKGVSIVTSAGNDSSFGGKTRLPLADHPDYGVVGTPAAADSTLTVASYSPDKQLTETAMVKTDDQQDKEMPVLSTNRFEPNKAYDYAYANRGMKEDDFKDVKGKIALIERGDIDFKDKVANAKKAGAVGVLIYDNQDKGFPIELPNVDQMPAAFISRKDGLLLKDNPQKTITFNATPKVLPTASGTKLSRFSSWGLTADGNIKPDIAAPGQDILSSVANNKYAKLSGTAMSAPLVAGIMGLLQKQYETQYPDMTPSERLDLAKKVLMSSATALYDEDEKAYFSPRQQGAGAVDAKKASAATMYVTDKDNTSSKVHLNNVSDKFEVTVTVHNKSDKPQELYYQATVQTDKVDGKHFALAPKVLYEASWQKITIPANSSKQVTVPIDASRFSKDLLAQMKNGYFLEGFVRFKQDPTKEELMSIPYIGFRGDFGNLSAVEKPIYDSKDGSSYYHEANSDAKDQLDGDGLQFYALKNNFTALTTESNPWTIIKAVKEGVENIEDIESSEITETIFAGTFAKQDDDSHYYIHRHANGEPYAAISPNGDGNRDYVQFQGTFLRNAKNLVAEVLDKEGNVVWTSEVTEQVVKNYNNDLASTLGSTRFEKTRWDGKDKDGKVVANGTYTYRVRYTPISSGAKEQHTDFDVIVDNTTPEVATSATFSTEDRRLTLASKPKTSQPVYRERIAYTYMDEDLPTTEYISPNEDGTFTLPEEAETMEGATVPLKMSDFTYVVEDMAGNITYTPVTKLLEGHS
Put plainly: SPR; BIAcore X100, NTA sensor chip with about 20-25 RU of immobilised His-tagged C5a form (ligand), ScpA form flowed as ligate at 30 uL/min, 25 °C, 10 mM Hepes-KOH pH 7.4, 150 mM NaCl, 0.005% Tween 20, 50 uM EDTA; global fit, 1:1 Langmuir model with drifting baseline; triplicate. The following applies: both partners purified. On the technique in general: SPR reads the build-up and loss of mass on a sensor chip optically.

The next test has as its target T2, ScpA_(S512A,D783A) (Streptococcus pyogenes, UniProt P15926 31-1032, S512A | D783A).
T2 construct: Made by QuikChange II from pGEX ScpA(31-1032); The active form D783A (S512 intact) was used for activity assays and for the crystal structure 7YZX; also called D783A_(S512A); source: details in Supplemental Information SI1 and SI2
T2 sequence (looked up): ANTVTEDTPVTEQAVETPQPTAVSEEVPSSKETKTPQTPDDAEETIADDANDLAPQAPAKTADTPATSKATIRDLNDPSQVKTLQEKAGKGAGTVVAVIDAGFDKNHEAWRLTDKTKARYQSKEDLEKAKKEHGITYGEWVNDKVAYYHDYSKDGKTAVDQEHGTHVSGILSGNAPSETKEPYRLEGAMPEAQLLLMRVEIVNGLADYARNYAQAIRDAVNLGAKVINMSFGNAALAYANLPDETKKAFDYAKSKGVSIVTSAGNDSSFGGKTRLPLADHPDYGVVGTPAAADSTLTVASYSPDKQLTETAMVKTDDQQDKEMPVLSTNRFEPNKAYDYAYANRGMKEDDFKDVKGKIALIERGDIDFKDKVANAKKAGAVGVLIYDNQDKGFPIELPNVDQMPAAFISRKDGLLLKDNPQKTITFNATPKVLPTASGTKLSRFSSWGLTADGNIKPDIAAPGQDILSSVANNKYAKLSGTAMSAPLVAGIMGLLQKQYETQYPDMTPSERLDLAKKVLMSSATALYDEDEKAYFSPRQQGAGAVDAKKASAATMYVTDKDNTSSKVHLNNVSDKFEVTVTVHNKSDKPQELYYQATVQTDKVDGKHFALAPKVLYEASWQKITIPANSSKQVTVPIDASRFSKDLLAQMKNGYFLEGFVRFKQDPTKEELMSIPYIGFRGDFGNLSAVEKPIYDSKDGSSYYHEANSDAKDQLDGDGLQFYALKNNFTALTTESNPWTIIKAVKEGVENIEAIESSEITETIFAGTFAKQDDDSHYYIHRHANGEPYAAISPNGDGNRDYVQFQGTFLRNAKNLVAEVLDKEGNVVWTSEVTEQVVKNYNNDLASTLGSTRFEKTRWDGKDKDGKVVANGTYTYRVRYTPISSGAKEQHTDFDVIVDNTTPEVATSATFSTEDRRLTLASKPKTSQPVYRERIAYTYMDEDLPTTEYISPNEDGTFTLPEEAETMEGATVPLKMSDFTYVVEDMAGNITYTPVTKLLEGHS
The test is described as above. The note with it: both partners purified.

B1: Recombinant human C5a (rhC5a) (natural protein, UniProt P01031 678-751, looked up)
chain: TLQKKIEEIAAKYKHSVVKKCCYDGACVNNDETCEQRAARISLGPRCIKAFTECCVVASQLRANISHKDMQLGR
notes: human complement C5a anaphylatoxin, residues 1-74 (core 1-67 and tail 68-74); also called full length rhC5a; substrate; not shown: His6, N-terminal, kept
A word on the Kd: it is the constant that tells how readily two partners part at equilibrium. A word on the koff: it is the first-order rate constant of dissociation. A higher koff goes with fast dissociation. The kon is the second-order rate constant of association. In the test with ScpA_(S512A), B1 returned a Kd of 34 nM, a koff of 0.007 s⁻¹ and a kon of 209000 M⁻¹ s⁻¹. In the test with ScpA_(S512A,D783A), this molecule displayed a Kd of 314 nM, a koff of 0.0237 s⁻¹ and a kon of 75400 M⁻¹ s⁻¹.
